What was measured:
c-Src SH2 = experiment: SH2 binding enrichment of the phosphorylated peptide, bacterial display (enrichment ratio); higher = better substrate or ligand; peptides without Tyr show the background
SHP2-C SH2 = experiment: as above
Grb2 SH2 = Grb2 SH2 (UniProt P62993); experiment: as above
Jak2 = Jak2 (UniProt O60674); experiment: phosphorylation enrichment, bacterial display (enrichment ratio); higher = better substrate or ligand; peptides without Tyr show the background
FGFR3 = FGFR3 (UniProt P22607); experiment: as above
AncSZ = experiment: as above
c-Src = experiment: as above
MERTK = MERTK (UniProt Q12866); experiment: as above
EPHB2 = EPHB2 (UniProt P29323); experiment: as above
Fer (mouse) = experiment: as above
c-Abl (mouse) = experiment: as above
Hck = Hck (UniProt P08631); experiment: as above
FGFR1 = FGFR1 (UniProt P11362); experiment: as above
Fyn = Fyn (UniProt P06241); experiment: as above
EPHB1 = EPHB1 (UniProt P54762); experiment: as above
Fes = Fes (UniProt P07332); experiment: as above
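Throughout, for SH2 binding enrichment of the phosphorylated peptide, bacterial display: peptide library displayed on the E. coli surface as eCPX fusions, selected cells deep-sequenced, score is each peptide's frequency after selection divided by its frequency in the input.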
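Throughout, for phosphorylation enrichment, bacterial display: 11-residue human phosphosite peptides and single-mutation variants displayed on the E. coli surface, counted by deep sequencing, each peptide's frequency after selection divided by its frequency in the unselected input library; frequency after pTyr selection over input frequency; kinase dosed for 20-30% of maximal phosphorylation in three min.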

FGFR3, sequence (P22607 whole entry, looked up): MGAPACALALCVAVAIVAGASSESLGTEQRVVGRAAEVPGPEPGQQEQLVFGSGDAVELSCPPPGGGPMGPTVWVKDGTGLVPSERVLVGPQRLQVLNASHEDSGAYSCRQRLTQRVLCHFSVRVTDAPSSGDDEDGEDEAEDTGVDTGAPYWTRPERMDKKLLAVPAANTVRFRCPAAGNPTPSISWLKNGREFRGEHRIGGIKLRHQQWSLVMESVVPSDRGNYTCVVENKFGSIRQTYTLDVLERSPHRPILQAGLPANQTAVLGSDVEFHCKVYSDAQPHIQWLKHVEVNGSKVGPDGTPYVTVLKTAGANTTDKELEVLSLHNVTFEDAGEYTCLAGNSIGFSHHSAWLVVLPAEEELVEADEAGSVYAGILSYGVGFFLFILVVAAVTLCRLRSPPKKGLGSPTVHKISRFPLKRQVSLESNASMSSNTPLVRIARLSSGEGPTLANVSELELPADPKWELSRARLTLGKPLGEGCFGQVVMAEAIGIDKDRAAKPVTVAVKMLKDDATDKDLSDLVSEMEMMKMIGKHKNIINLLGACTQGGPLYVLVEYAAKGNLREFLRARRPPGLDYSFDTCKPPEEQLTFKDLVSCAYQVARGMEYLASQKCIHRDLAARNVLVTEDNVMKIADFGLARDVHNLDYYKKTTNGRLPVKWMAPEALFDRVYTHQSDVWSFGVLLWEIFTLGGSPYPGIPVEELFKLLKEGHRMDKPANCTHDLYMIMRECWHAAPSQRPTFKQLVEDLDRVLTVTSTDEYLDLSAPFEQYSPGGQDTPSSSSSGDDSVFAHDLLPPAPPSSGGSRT
MERTK, sequence (Q12866 whole entry, looked up): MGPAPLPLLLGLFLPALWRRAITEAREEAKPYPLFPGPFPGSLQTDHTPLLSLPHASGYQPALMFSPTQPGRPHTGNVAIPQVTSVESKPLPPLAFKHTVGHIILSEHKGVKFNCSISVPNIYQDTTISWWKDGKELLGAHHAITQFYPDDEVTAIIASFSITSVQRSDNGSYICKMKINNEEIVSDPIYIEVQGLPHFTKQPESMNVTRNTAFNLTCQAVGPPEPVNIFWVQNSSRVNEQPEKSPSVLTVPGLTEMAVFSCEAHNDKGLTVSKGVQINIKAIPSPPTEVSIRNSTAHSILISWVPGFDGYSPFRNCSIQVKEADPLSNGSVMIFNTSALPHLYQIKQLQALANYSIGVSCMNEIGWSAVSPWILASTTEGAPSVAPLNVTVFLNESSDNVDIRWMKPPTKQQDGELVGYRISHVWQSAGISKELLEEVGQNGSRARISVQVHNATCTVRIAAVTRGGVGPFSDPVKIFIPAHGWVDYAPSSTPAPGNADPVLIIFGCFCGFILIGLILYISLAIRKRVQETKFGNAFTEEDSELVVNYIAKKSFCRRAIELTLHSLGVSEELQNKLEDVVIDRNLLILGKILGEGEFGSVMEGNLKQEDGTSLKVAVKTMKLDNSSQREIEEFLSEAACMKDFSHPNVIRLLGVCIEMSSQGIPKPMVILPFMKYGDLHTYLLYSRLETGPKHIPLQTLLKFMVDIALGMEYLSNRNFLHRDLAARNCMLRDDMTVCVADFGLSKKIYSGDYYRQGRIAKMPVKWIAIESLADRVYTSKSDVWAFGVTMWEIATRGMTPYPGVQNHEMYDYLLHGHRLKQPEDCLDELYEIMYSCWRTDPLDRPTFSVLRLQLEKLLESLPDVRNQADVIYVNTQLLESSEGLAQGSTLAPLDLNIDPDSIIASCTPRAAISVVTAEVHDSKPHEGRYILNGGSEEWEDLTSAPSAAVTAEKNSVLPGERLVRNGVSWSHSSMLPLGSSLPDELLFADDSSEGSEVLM
EPHB2, sequence (P29323 whole entry, looked up): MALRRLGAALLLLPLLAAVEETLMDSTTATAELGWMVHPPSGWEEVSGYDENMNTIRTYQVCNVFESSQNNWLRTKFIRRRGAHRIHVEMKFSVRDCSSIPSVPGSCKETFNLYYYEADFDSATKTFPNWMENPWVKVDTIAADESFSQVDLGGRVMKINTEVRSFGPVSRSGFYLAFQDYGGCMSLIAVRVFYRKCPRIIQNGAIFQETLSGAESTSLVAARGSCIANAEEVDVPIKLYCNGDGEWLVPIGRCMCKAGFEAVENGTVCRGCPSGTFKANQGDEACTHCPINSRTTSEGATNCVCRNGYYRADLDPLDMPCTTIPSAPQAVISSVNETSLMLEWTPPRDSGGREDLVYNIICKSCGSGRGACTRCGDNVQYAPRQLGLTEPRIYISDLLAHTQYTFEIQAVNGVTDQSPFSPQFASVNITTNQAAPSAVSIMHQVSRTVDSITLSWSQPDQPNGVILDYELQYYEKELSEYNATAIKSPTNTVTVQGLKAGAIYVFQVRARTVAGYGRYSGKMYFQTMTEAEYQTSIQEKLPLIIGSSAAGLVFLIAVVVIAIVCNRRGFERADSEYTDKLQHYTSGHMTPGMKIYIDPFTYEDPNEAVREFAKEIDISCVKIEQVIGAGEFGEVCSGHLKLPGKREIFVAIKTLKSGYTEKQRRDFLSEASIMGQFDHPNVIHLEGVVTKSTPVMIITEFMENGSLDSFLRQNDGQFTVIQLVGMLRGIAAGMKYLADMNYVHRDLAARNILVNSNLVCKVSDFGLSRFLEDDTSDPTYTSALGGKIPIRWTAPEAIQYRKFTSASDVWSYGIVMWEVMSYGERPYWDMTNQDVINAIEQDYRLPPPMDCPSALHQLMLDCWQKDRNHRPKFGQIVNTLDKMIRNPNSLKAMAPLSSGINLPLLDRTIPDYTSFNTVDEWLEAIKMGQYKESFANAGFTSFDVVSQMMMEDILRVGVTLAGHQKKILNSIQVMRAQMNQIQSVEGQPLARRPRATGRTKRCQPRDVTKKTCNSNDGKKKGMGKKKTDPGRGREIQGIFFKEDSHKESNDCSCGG
EPHB1, sequence (P54762 whole entry, looked up): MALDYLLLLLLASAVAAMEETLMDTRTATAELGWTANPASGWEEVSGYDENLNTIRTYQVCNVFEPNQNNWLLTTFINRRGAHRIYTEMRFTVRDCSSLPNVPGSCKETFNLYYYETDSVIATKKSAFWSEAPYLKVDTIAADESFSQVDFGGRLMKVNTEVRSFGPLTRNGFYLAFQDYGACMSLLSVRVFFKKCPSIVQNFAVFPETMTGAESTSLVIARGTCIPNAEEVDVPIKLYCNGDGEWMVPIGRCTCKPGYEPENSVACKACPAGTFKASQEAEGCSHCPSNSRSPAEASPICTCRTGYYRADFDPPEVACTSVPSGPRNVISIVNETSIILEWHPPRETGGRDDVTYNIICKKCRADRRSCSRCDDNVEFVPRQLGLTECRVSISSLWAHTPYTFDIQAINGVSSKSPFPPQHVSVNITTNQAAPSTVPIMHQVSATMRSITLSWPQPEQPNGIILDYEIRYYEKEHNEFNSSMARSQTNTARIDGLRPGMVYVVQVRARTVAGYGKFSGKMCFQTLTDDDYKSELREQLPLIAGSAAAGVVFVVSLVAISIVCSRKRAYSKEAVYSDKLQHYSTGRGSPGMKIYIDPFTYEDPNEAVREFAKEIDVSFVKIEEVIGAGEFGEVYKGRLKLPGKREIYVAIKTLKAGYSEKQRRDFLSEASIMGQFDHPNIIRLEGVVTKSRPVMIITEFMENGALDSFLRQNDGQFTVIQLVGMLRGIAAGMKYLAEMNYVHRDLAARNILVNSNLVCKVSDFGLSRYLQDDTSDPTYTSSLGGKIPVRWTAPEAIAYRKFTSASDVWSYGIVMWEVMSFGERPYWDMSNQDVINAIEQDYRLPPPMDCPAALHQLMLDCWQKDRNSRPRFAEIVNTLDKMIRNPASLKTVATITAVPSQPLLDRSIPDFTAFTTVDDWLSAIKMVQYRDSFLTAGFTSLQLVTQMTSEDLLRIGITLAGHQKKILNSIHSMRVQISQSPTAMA
Grb2 SH2, sequence (P62993 whole entry, looked up): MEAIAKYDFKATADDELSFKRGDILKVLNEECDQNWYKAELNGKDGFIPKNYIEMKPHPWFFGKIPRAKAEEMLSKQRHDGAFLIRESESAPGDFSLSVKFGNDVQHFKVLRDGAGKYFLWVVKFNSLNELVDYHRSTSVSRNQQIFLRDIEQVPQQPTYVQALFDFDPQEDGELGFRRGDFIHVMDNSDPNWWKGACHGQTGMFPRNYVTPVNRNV
Fes, sequence (P07332 whole entry, looked up, the tested form may be a part): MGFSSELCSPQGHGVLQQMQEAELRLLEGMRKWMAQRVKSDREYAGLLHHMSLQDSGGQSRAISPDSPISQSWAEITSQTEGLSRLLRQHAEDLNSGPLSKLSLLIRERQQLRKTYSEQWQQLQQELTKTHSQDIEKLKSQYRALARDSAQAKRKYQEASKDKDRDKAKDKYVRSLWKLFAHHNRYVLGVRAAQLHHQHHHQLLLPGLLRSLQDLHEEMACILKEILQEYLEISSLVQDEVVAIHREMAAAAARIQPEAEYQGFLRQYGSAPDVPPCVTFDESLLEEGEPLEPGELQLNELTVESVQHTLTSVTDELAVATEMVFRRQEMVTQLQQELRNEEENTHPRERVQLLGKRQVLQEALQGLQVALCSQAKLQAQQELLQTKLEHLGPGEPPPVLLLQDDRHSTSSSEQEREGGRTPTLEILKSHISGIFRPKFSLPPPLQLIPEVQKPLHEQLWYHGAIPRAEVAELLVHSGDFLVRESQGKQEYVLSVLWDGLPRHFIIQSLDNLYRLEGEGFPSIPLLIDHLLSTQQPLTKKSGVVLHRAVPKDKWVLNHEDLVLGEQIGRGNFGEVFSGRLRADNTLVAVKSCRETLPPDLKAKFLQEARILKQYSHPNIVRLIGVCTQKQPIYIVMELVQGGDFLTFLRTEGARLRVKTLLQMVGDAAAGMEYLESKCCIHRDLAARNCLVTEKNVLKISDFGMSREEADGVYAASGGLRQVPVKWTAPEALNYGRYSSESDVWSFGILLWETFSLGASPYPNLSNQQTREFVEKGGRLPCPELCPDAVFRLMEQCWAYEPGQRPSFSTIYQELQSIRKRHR

Row | Sequence | SH2 binding enrichment (c-Src SH2) | SH2 binding enrichment (SHP2-C SH2) | SH2 binding enrichment (Grb2 SH2) | phosphorylation enrichment (Jak2) | phosphorylation enrichment (FGFR3) | phosphorylation enrichment (AncSZ) | phosphorylation enrichment (c-Src) | phosphorylation enrichment (MERTK) | phosphorylation enrichment (EPHB2) | phosphorylation enrichment (Fer (mouse)) | phosphorylation enrichment (c-Abl (mouse)) | phosphorylation enrichment (Hck) | phosphorylation enrichment (FGFR1) | phosphorylation enrichment (Fyn) | phosphorylation enrichment (EPHB1) | phosphorylation enrichment (Fes)
1 | VNCHQYDGLVG [ATP2A2_Y407_E412G] | 11.1 | 0.686 | 0.785 | 0.736 | 0.673 | 0.931 | 0.559 | 0.451 | 0.546 | 0.518 | 0.684 | 0.502 | 0.559 | 0.48 | 0.433 | 0.847
2 | VNKIYHPDFIV [LIG3_Y768_Y768H] | 0.529 | 0.72 | 0.747 | 0.796 | 0.589 | 0.62 | 0.484 | 0.483 | 0.417 | 0.388 | 0.562 | 0.481 | 0.453 | 0.446 | 0.355 | 0.715
3 | VRFMANTDETF [F8_Y450_Y450N] | 0.452 | 0.722 | 0.645 | 0.849 | 0.653 | 0.928 | 0.44 | 0.408 | 0.568 | 0.436 | 0.604 | 0.462 | 0.439 | 0.408 | 0.701 | 1.12
4 | VRSNHYDPEED [TJP1_Y1346] | 0.578 | 0.744 | 1.02 | 0.974 | 0.748 | 1.27 | 0.445 | 0.526 | 0.608 | 0.49 | 0.688 | 0.579 | 0.66 | 0.568 | 0.494 | 1.19
5 | VSLEAYCKHKY [RXRA_Y403_A398V] | 0.421 | 0.627 | 0.62 | 1.05 | 0.662 | 1.01 | 0.46 | 0.559 | 0.584 | 0.541 | 0.96 | 0.579 | 0.611 | 0.656 | 0.7 | 1.24
6 | VSRGRYRPQEC [B4GALT4_Y113] | 0.43 | 0.409 | 0.62 | 0.655 | 0.515 | 0.754 | 0.657 | 0.575 | 0.476 | 0.542 | 0.545 | 0.49 | 0.475 | 0.574 | 0.527 | 0.643
7 | VSTKVYKRFPS [BEST1_Y148_A146K] | 0.656 | 0.848 | 1.1 | 0.47 | 0.305 | 0.445 | 0.425 | 0.365 | 0.348 | 0.422 | 0.505 | 0.352 | 0.384 | 0.366 | 0.344 | 0.605
8 | VTRAKYFIRDE [GNAS_Y339] | 0.358 | 0.54 | 0.989 | 0.622 | 0.432 | 0.654 | 0.375 | 0.405 | 0.405 | 0.325 | 0.458 | 0.409 | 0.45 | 0.404 | 0.356 | 0.694
9 | VTRLWYPVCFG [ITK_Y336_R335W] | 0.745 | 0.936 | 1.07 | 1.02 | 1.36 | 1.17 | 0.403 | 0.412 | 0.699 | 0.509 | 0.89 | 0.488 | 1.11 | 0.502 | 0.66 | 1.35
10 | VVDVTYDDVPI [FLNB_Y1308_E1305D] | 0.518 | 0.866 | 0.822 | 0.951 | 0.697 | 1.38 | 1.05 | 0.511 | 1.23 | 3.96 | 0.801 | 1.3 | 0.506 | 1.04 | 2.21 | 1.27
11 | VVEVTYDDVPI [FLNB_Y1308] | 0.519 | 0.529 | 0.819 | 1.1 | 0.947 | 2.02 | 1.3 | 0.688 | 1.07 | 5.94 | 0.805 | 1.82 | 0.742 | 1.76 | 1.57 | 1.56
12 | VVIVLYFSLWK [SLC6A2_Y249] | 1.22 | 1.56 | 1.59 | 0.64 | 0.459 | 0.703 | 0.348 | 0.39 | 0.453 | 0.314 | 0.942 | 0.42 | 0.486 | 0.241 | 0.254 | 1.13
13 | VVVTKYCKEEL [ATP7B_Y1078_A1074V] | 0.369 | 0.609 | 0.637 | 0.968 | 0.824 | 1.08 | 0.492 | 0.447 | 0.658 | 0.554 | 0.873 | 0.546 | 0.58 | 0.568 | 0.639 | 1.37
14 | VYLGAYDCFLP [SLC22A5_Y486_R488C] | 0.992 | 1.36 | 1.1 | 1.28 | 1.09 | 2.18 | 6.4 | 7.36 | 8.08 | 7.23 | 1.77 | 5.14 | 1.15 | 7.34 | 5.46 | 1.41
15 | WDLPEYSFKDP [ITGA3_Y237_S235P_YF] | 0.502 | 1.04 | 0.931 | 1.18 | 0.836 | 2.37 | 1.02 | 0.381 | 0.571 | 0.421 | 0.871 | 1.19 | 0.486 | 3.1 | 0.558 | 1.25
16 | WFPANYVKLLS [ITSN1_Y1132] | 0.893 | 2.25 | 1.02 | 1.51 | 0.825 | 0.785 | 0.399 | 0.569 | 1.52 | 0.518 | 0.596 | 0.549 | 0.763 | 0.419 | 4.12 | 0.841
17 | WHHTFYNELCV [ACTC1_Y93_R97C] | 1.2 | 0.767 | 0.86 | 1.03 | 0.979 | 1.19 | 0.73 | 0.905 | 0.658 | 1.04 | 0.761 | 1.18 | 0.881 | 0.574 | 0.793 | 1.23

From the supplement of paper PMC10065799, “High-throughput profiling of sequence recognition by tyrosine kinases and SH2 domains using bacterial peptide display” (eLife, 2023)
